Legend:
Conditions in all cases: protein: recombinant; tags: C-terminal SNAP tag, Cy3B-labeled; N-terminal His tag removed with TEV; label: array RNA; single-stranded
[1] = molecular target: T1, PUF4 RNA-binding domain (Pumilio homology domain) (Saccharomyces cerevisiae, UniProt P25339 537-888); assay: RNA-MaP; ddG 1.663; RNA-MaP: 20 mM Na-HEPES pH 7.4, 0.1% Tween-20, 5% glycerol, 0.1 mg/mL BSA, 2 mM DTT, low salt 0.75 mM MgCl2 + 30 mM KOAc (model data; high salt 2 mM MgCl2 + 100 mM KOAc), 25 C
T1 sequence: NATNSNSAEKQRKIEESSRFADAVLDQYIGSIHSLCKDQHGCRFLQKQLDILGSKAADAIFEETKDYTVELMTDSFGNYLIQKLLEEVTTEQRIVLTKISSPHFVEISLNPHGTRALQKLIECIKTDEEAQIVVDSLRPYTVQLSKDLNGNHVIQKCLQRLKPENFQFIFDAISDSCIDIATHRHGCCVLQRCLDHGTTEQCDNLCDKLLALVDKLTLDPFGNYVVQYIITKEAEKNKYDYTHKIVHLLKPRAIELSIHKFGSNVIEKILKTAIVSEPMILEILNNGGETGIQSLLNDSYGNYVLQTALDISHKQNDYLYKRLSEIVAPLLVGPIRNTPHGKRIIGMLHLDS

[2] = molecular target: T1, PUF4 RNA-binding domain (Pumilio …); assay: RNA-MaP; ddG 1.018; RNA-MaP: 20 mM Na-HEPES pH 7.4, 0.1% Tween-20, 5% glycerol, 0.1 mg/mL BSA, 2 mM DTT, low salt 0.75 mM MgCl2 + 30 mM KOAc (model data; high salt 2 mM MgCl2 + 100 mM KOAc), 25 C
[3] = molecular target: T1, PUF4 RNA-binding domain (Pumilio …); assay: RNA-MaP; ddG 0.934; RNA-MaP: 20 mM Na-HEPES pH 7.4, 0.1% Tween-20, 5% glycerol, 0.1 mg/mL BSA, 2 mM DTT, low salt 0.75 mM MgCl2 + 30 mM KOAc (model data; high salt 2 mM MgCl2 + 100 mM KOAc), 25 C
[4] = molecular target: T1, PUF4 RNA-binding domain (Pumilio …); assay: RNA-MaP; ddG 0.243; RNA-MaP: 20 mM Na-HEPES pH 7.4, 0.1% Tween-20, 5% glycerol, 0.1 mg/mL BSA, 2 mM DTT, low salt 0.75 mM MgCl2 + 30 mM KOAc (model data; high salt 2 mM MgCl2 + 100 mM KOAc), 25 C
[5] = molecular target: T1, PUF4 RNA-binding domain (Pumilio …); assay: RNA-MaP; ddG 3.923; RNA-MaP: 20 mM Na-HEPES pH 7.4, 0.1% Tween-20, 5% glycerol, 0.1 mg/mL BSA, 2 mM DTT, low salt 0.75 mM MgCl2 + 30 mM KOAc (model data; high salt 2 mM MgCl2 + 100 mM KOAc), 25 C
[6] = molecular target: T1, PUF4 RNA-binding domain (Pumilio …); assay: RNA-MaP; ddG 3.533; RNA-MaP: 20 mM Na-HEPES pH 7.4, 0.1% Tween-20, 5% glycerol, 0.1 mg/mL BSA, 2 mM DTT, low salt 0.75 mM MgCl2 + 30 mM KOAc (model data; high salt 2 mM MgCl2 + 100 mM KOAc), 25 C
[7] = molecular target: T1, PUF4 RNA-binding domain (Pumilio …); assay: RNA-MaP; ddG 3.256; RNA-MaP: 20 mM Na-HEPES pH 7.4, 0.1% Tween-20, 5% glycerol, 0.1 mg/mL BSA, 2 mM DTT, low salt 0.75 mM MgCl2 + 30 mM KOAc (model data; high salt 2 mM MgCl2 + 100 mM KOAc), 25 C

B1: S1a K3.1 T7A (ssRNA)
RNA: UCUCUUUGUAUAAAUCUCUU
For B1, the Kd [1] was -9.96 ± 0.7 kcal/mol (dG=RTlnKd).

B2: S1a K3.1 A8G (ssRNA)
RNA: UCUCUUUGUAUAUGUCUCUU
B2 was tested, and the Kd [2] was -10.6 ± 0.24 kcal/mol (dG=RTlnKd).

B3: S1a K3.1 A8C (ssRNA)
RNA: UCUCUUUGUAUAUCUCUCUU
With B3 the Kd [3] was -10.7 ± 0.225 kcal/mol (dG=RTlnKd).

B4: S1a K3.1 A8T (ssRNA)
RNA: UCUCUUUGUAUAUUUCUCUU
In the case of B4, the Kd [4] is reported as -11.4 ± 0.257 kcal/mol (dG=RTlnKd).

B5: S1a K3.1 T1G (ssRNA)
RNA: UCUCUUGGUAUAUAUCUCUU
In the case of B5, the Kd [5] is reported as -7.7 ± 0.635 kcal/mol (dG=RTlnKd).

B6: S1a K3.1 T1C (ssRNA)
RNA: UCUCUUCGUAUAUAUCUCUU
B6 was tested, and the Kd [6] was -8.09 ± 0.575 kcal/mol (dG=RTlnKd).

B7: S1a K3.1 T1A (ssRNA)
RNA: UCUCUUAGUAUAUAUCUCUU
For B7, the Kd [7] was -8.36 ± 0.617 kcal/mol (dG=RTlnKd).

Source: article PMC9352680, “A comprehensive thermodynamic model for RNA binding by the Saccharomyces cerevisiae Pumilio protein PUF4”
